Assay results as given in article PMC3850785.

B1: rat GST 5-5 (Rattus norvegicus) (protein)
chain: VLELYLDLLSQPCRAIYIFAKKNNIPFQMHTVELRKGEHLSDAFAQVNPMKKVPAMKDGGFTLCESVAILLYLAHKYKVPDHWYPQDLQARARVDEYLAWQHTTLRRSCLRTLWHKVMFPVFLGEQIRPEMLAATLADLDVNVQVLEDQFLQDKDFLVGPHISLADVVAITELMHPVGGGCPVFEGRPRLAAWYRRVEAAVGKDLFLEAHEVILKVRDCPPADPVIKQKLMPRVLTMIQ
B2: human GST T1-1 (Homo sapiens) (protein)
chain: GLELYLDLLSQPCRAVYIFAKKNDIPFELRIVDLIKGQHLSDAFAQVNPLKKVPALKDGDFTLTESVAILLYLTRKYKVPDYWYPQDLQARARVDEYLAWQHTTLRRSCLRALWHKVMFPVFLGEPVSPQTLAATLAELDVTLQLLEDKFLQNKAFLTGPHISLADLVAITELMHPVGAGCQVFEGRPKLATWRQRVEAAVGEDLFQEAHEVILKAKDFPPADPTIKQKLMPWVLAMIR
B3: human GST A1-1 (Homo sapiens) (protein)
chain: AEKPKLHYFNARGRMESTRWLLAAAGVEFEEKFIKSAEDLDKLRNDGYLMFQQVPMVEIDGMKLVQTRAILNYIASKYNLYGKDIKERALIDMYIEGIADLGEMILLLPVCPPEEKDAKLALIKEKIKNRYFPAFEKVLKSHGQDYLVGNKLSRADIHLVELLYYVEELDSSLISSFPLLKALKTRISNLPTVKKFLQPGSPRKPPMDEKSLEEARKIFRF
B4: human GST A3-3 (Homo sapiens) (protein)
chain: AGKPKLHYFNGRGRMEPIRWLLAAAGVEFEEKFIGSAEDLGKLRNDGSLMFQQVPMVEIDGMKLVQTRAILNYIASKYNLYGKDIKERALIDMYTEGMADLNEMILLLPLCRPEEKDAKIALIKEKTKSRYFPAFEKVLQSHGQDYLVGNKLSRADISLVELLYYVEELDSSLISNFPLLKALKTRISNLPTVKKFLQPGSPRKPPADAKALEEARKIFRF
B5: human GST M1-1 (Homo sapiens) (protein)
chain: PMILGYWDIRGLAHAIRLLLEYTDSSYEEKKYTMGDAPDYDRSQWLNEKFKLGLDFPNLPYLIDGAHKITQSNAILCYIARKHNLCGETEEEKIRVDILENQTMDNHMQLGMICYNPEFEKLKPKYLEELPEKLKLYSEFLGKRPWFAGNKITFVDFLVYDVLDLHRIFEPKCLDAFPNLKDFISRFEGLEKISAYMKSSRFLPRPVFSKMAVWGNK
B6: human GST P1-1 (Homo sapiens) (protein)
chain: PPYTVVYFPVRGRCAALRMLLADQGQSWKEEVVTVETWQEGSLKASCLYGQLPKFQDGDLTLYQSNTILRHLGRTLGLYGKDQQEAALVDMVNDGVEDLRCKYISLIYTNYEAGKDDYVKALPGQLKPFETLLSQNQGGKTFIVGDQISFADYNLLDLLLIHEVLAPGCLDAFPLLSAYVGRLSARPKLKAFLASPEYVNLPINGNGKQ

The proteins below were run on C1O[C@@H]1[C@@H]1CO1 (assay: purified protein). Details: 5 mM GSH, 0.10 M Tris-HCl pH 7.7, 37 °C, 1 h.

Point of comparison: B1, Km 770 ± 20 µM. Against it:
- B2 — within error, 790 ± 30 µM
- B3 — 2.6-fold lower, 300 ± 50 µM
- B4 — within error, 480 ± 330 µM
- B5 — within error, 730 ± 60 µM
- B6 — within error, 740 ± 330 µM

Point of comparison: B3, kcat 0.0228 s⁻¹. Against it:
- B1 — 2.8-fold higher, 0.0638 s⁻¹
- B2 — 2.7-fold higher, 0.0618 s⁻¹
- B4 — within 1.5-fold, 0.0253 s⁻¹
- B6 — 1.9-fold higher, 0.044 s⁻¹

Point of comparison: B4, kcat/Km 66.7 M⁻¹ s⁻¹. Against it:
- B1 — within 1.5-fold, 83.3 M⁻¹ s⁻¹
- B2 — within 1.5-fold, 78.3 M⁻¹ s⁻¹
- B3 — within 1.5-fold, 78.3 M⁻¹ s⁻¹
- B6 — within 1.5-fold, 65 M⁻¹ s⁻¹

The proteins below were run on C1O[C@@H]1[C@H]1CO1 (assay: purified protein). Details: 5 mM GSH, 0.10 M Tris-HCl pH 7.7, 37 °C, 1 h.

Point of comparison: B4, Km 750 ± 120 µM. Against it:
- B1 — within error, 830 ± 150 µM
- B2 — 2-fold lower, 370 ± 10 µM
- B3 — within 1.5-fold, 540 ± 30 µM
- B5 — within error, 920 ± 330 µM
- B6 — within error, 590 ± 150 µM

Point of comparison: B4, kcat 0.0302 s⁻¹. Against it:
- B1 — within 1.5-fold, 0.0308 s⁻¹
- B2 — within 1.5-fold, 0.0403 s⁻¹
- B3 — within 1.5-fold, 0.0342 s⁻¹
- B5 — 1.6-fold higher, 0.0497 s⁻¹
- B6 — within 1.5-fold, 0.0265 s⁻¹

Point of comparison: B4, kcat/Km 40 M⁻¹ s⁻¹. Against it:
- B1 — within 1.5-fold, 38.3 M⁻¹ s⁻¹
- B2 — 2.7-fold higher, 108 M⁻¹ s⁻¹
- B3 — 1.6-fold higher, 63.3 M⁻¹ s⁻¹
- B5 — within 1.5-fold, 56.7 M⁻¹ s⁻¹
- B6 — within 1.5-fold, 46.7 M⁻¹ s⁻¹

The proteins below were run on C1O[C@H]1[C@H]1CO1 (assay: purified protein). Details: 5 mM GSH, 0.10 M Tris-HCl pH 7.7, 37 °C, 1 h.

Point of comparison: B2, Km 930 ± 10 µM. Against it:
- B1 — within 1.5-fold, 800 ± 60 µM
- B3 — 2.9-fold lower, 320 ± 10 µM
- B4 — 1.8-fold lower, 510 ± 80 µM
- B5 — within 1.5-fold, 810 ± 50 µM
- B6 — within error, 910 ± 10 µM

Point of comparison: B2, kcat 0.0617 s⁻¹. Against it:
- B1 — within 1.5-fold, 0.0573 s⁻¹
- B3 — 2.8-fold lower, 0.0218 s⁻¹
- B4 — 2.2-fold lower, 0.028 s⁻¹
- B5 — within 1.5-fold, 0.074 s⁻¹
- B6 — within 1.5-fold, 0.0442 s⁻¹

Point of comparison: B6, kcat/Km 48.3 M⁻¹ s⁻¹. Against it:
- B1 — within 1.5-fold, 71.7 M⁻¹ s⁻¹
- B2 — within 1.5-fold, 66.7 M⁻¹ s⁻¹
- B3 — within 1.5-fold, 68.3 M⁻¹ s⁻¹
- B4 — within 1.5-fold, 55 M⁻¹ s⁻¹
- B5 — 1.9-fold higher, 91.7 M⁻¹ s⁻¹
